The target in the experiment is Human CTLA-4/CD152, His tag (Sino Biological, Cat: 11159-H08H) (human, UniProt P16410 36-162). Description: BLI. (BLI is a label-free optical method that tracks binding on a fibre tip over time.)
Sequence of Human CTLA-4/CD152, His tag (Sino Biological, Cat: 11159-H08H) (P16410 36-162): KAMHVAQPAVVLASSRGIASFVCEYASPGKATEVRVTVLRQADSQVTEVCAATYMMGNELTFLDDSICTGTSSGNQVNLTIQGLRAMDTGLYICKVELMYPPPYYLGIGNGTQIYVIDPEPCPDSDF

B1: GI101C1 (hCD80-Fc) (Fc fusion)
chain: VIHVTKEVKEVATLSCGHNVSVEELAQTRIYWQKEKKMVLTMMSGDMNIWPEYKNRTIFDITNNLSIVILALRPSDEGTYECVVLKYEKDAFKREHLAEVTLSVKADFPTPSISDFEIPTSNIRRIICSTSGGFPEPHLSWLENGEELNAINTTVSQDPETELYAVSSKLDFNMTTNHSFMCLIKYGHLRVNQTFNWNTTKQEHFPDNGSGGGGSGGGGSGGGGSAESKYGPPCPPCPAPEAAGGPSVFLFPPKPKDQLMISRTPEVTCVVVDVSQEDPEVQFNWYVDGVEVHNAKTKPREEQFNSTYRVVSVLTVLHQDWLNGKEYKCKVSNKGLPSSIEKTISKAKGQPREPQVYTLPPSQEEMTKNQVSLTCLVKGFYPSDIAVEWESNGQPENNYKTTPPVLDSDGSFFLYSRLTVDKSRWQEGNVFSCSVLHEALHNHYTQKSLSLSLG
As for B1, binding was put at a Kd of 3.2 nM.

Source of the values: patent publication US11857601 (dated 2024).
